B1: Subtilisin-chymotrypsin inhibitor-2A, P01053 (parent)
chain: MSSVEKKPEGVNTGAGDRHNLKTEWPELVGKSVEEAKKVILQDKPEAQIIVLPVGTIVTMEYRIDRVRLFVDKLDNIAQVPRVG

Variants of: B1
Conditions: Hordeum vulgare; pH 6.3; 25 °C; GdnHCl; Fluorescence; MES 50 mM; structure 2CI2; whole UniProt chain shown

Variant | ddG of mutation (higher = less stable) [kcal/mol] | denaturant m value [kcal/mol/M] | denaturant midpoint (higher = more stable) [M]
MSSVEKKPEGVNTGAGDRHNLKTEWPELVGKSVEEAKKVILQDKPEAQIGVLPVGTIVTMEYRIDRVRLFVDKLDNIAQVPRVG | 3.52 | 2.13 | 2.19
MSSVEKKPEGVNTGAGDRHNLKTEWPELVGKSVEEAKKVILQDKPEAQIAVLPVGTIVTMEYRIDRVRLFVDKLDNIAQVPRVG | 2.12 | 2.22 | 3.91
MSSVEKKPEGVNTGAGDRHNLKTEWPELVGKSVEEAKKVILQDKPEAQIVVLPVGTIVTMEYRIDRVRLFVDKLDNIAQVPRVG | -0.08 | 1.77 | 4.04
MSSVEKKPEGVNTGAGDRHNLKTEWPELVGKSVEEAKKVILQDKPEAQIIVLPVGTIVTMEYRIDRVRLFVDKLDNIAQTPRVG | 0.38 | 1.63 | 3.8
MSSVEKKPEGVNTGAGDRHNLKTEWPELVGKSVEEAKKVILQDKPEAQIIVLPVGTIVTMEYRIDRVRLFVDKLDNIAQAPRVG | 1.51 | 1.92 | 3.22
MSSVEKKPEGVNTGAGDRHNLKTEWPELVGKSVEEAKKVILQDKPEAQIIVLPVGTIVTMEYRIDRVRLFVDKLDNIAQGPRVG | 3.24 | 2.61 | 2.33
MSSVEKKPEGVNTGAGDRHNLKTEWPELVGKSVEEAKKVILQDKPEAQIIVLPGGTIVTMEYRIDRVRLFVDKLDNIAQVPRVG | 2.43 | 2 | 2.75
MSSVEKKPEGVNTGAGDRHNLKTEWPELVGKSVEEAKKVILQDKPEAQIIVLPTGTIVTMEYRIDRVRLFVDKLDNIAQVPRVG | 1.03 | 1.65 | 3.47
MSSVEKKPEGVNTGAGDRHNLKTEWPELVGKSVEEAKKVILQDKPEAQIIVLPVGTIVTMEYRIDRVRLFVDKLDNIGQVPRVG | 1.88 | 2.19 | 3.03
MSSVEKKPEGVNTGAGDRHNLKVEWPELVGKSVEEAKKVILQDKPEAQIIVLPVGTIVTMEYRIDRVRLFVDKLDNIAQVPRVG | 0.32 | 1.67 | 3.83
MSSVEKKPEGVNTGAGDRHNLKGEWPELVGKSVEEAKKVILQDKPEAQIIVLPVGTIVTMEYRIDRVRLFVDKLDNIAQVPRVG | 1.16 | 1.95 | 3.4
MSSVEKKPEGVNTGAGDRHNLKAEWPELVGKSVEEAKKVILQDKPEAQIIVLPVGTIVTMEYRIDRVRLFVDKLDNIAQVPRVG | 0.85 | 1.83 | 3.56
MSSVEKKPEGVNTGAGDRHNLKTEWPELVGKSVEEAKKVILQDKPEAQIIVLPVGTIVTMEYRIDRVRLFVDKLDNIAQVPRAG | 1.45 | 1.95 | 3.25
MSSVEKKPEGVNTGAGDRHNLKTEWPELVGKSVEEAKKVILQDKPEAQIIVLPVGTIVTMEYRIDRVRLFVDKLDNIAQVPRGG | 3.5 | 2.1 | 2.2
MSSVEKKPEGVNTGAGDRHNLKTEWPELVGKSVEEAKKVILQDKPEAQIIVLPVGTIVTMEYRIDRVRLFVDKLDNIAQVPRTG | 1.15 | 1.79 | 3.41

Reference: FireProtDB (doi:10.1021/bi00017a003)
